The values that follow come from patent publication US8088892B2, “Inhibitors of proteins from the Rho-GEF family” (Centre National de la Recherche Scientifique (C.N.R.S.), priority 2002, dated 2012).

Assay [1] deals with T1, TrioGEFD2 (DH2PH2, amino acids 1848-2298) (Homo sapiens, UniProt O75962).
T1 construct: TrioGEFD2 (DH2PH2, amino acids 1848-2298); expressed in transfected cells; host or cells: yeast strain EGY048
Briefly: Binding specificity of aptamers in yeast (two-hybrid, growth on selective medium). Details: key to Binding in yeast: +++^1 and +^1 represent respectively a full and a partial (see FIG. 1) binding capacity; +++^1 and +^1 represent respectively a full and a partial (see FIG. 1) binding capacity; −−^1 represents a lack of binding. From the text: (§1) Trx represents the thioredoxin protein with no inserted peptide.
In order to identify specific inhibitors of TrioGEFD2, a recently developed strategy was used, this strategy being derived from the yeast two hybrid system, where the cDNA library of preys has been replaced by a combinatorial library of short peptides (20 amino acids) in fusion with the bacterial protein thioredoxin A (Colas et al., 1996). This strategy has been successfully used to isolate specific inhibitors of the cyclin-dependent kinases (Cdks), the cell cycle transcription factor E2F, or the viral HPV16 E6 oncoprotein and HBEV core protein (Colas et al., 1996; Butz et al., 2001; Fabrizzio et al., 1999; Geyer et al., 2000). The TrioGEFD2 bait was constructed as follows: plasmid pMTHATrio1848-2298 (Bellanger et al., 1998) was digested with EcoRI/XhoI and the insert cloned in pEG202EcoRI/XhoI to generate the bait pEG202TroGEFD2. Yeast strain EGY048 (Colas et al., 1996) was transformed with pEG202TrioGEFD2 and subsequently with the library of Thioredoxin constrained aptamers according to standard procedures (Ito et al., 1983). After transformation, cells were allowed to recover for 4 hours in galactose containing medium before plating on selective galactose medium. Of the 2×10^6 screened colonies, those growing in the selective medium were recovered and retested for interaction. […]

The target in another assay is T2, GEFD2 domain of Kalirin (Rattus norvegicus, UniProt P97924).
T2 construct: GEFD2 domain of Kalirin (a.a. 1640-1980); expressed in transfected cells; host or cells: yeast
The assay is described as follows: Binding specificity of aptamers in yeast. On the set-up: key to Binding in yeast: +++^1 and +^1 represent respectively a full and a partial (see FIG. 1) binding capacity; +++^1 and +^1 represent respectively a full and a partial (see FIG. 1) binding capacity; −−^1 represents a lack of binding.
From the text: as §1
(§2) In order to identify specific inhibitors of TrioGEFD2, a recently developed strategy was used, this strategy being derived from the yeast two hybrid system, where the cDNA library of preys has been replaced by a combinatorial library of short peptides (20 amino acids) in fusion with the bacterial protein thioredoxin A (Colas et al., 1996). This strategy has been successfully used to isolate specific inhibitors of the cyclin-dependent kinases (Cdks), the cell cycle transcription factor E2F, or the viral HPV16 E6 oncoprotein and HBEV core protein (Colas et al., 1996; Butz et al., 2001; Fabrizzio et al., 1999; Geyer et al., 2000). The TrioGEFD2 bait was constructed as follows: plasmid pMTHATrio1848-2298 (Bellanger et al., 1998) was digested with EcoRI/XhoI and the insert cloned in pEG202EcoRI/XhoI to generate the bait pEG202TroGEFD2. Yeast strain EGY048 (Colas et al., 1996) was transformed with pEG202TrioGEFD2 and subsequently with the library of Thioredoxin constrained aptamers according to standard procedures (Ito et al., 1983). After transformation, cells were allowed to recover for 4 hours in galactose containing medium before plating on selective galactose medium. Of the 2×10^6 screened colonies, those growing in the selective medium were recovered and retested for interaction. […] Binding specificity was investigated by screening for interaction with the following baits: TrioDH2 (a.a. 1848-2096), TrioPH2 (a.a. 2107-2223), TrioGEFD1 (a.a. 1232-1629), Dbl (a.a. 498-826), Vav (ala. 172-598) (Zhang et al, 1994), GEFD2 domain of Kalirin (a.a. 1640-1980)(Penzes et al., 2001), p115RhoGEF (a.a. 391-870)(Wells et al, 2002) and PDZRhoGEF (a.a. 964-1362) (Fukuhara et al., 1999). None of these aptamers interacted with other RhoGEF members such as Dbl, Vav, and the RhoA-specific GEFs p115RhoGEF and PDZRhoGEF.

In the next assay the target is T3, TrioGEFD1 (DH1PH1) (Homo sapiens, UniProt O75962).
T3 construct: TrioGEFD1 (a.a. 1232-1629); expressed in transfected cells; host or cells: yeast
Briefly: Binding specificity of aptamers in yeast. Details: key to Binding in yeast: +++^1 and +^1 represent respectively a full and a partial (see FIG. 1) binding capacity; +++^1 and +^1 represent respectively a full and a partial (see FIG. 1) binding capacity; −−^1 represents a lack of binding.
From the text: as §1, §2

The next assay concerns the target T4, Dbl (Homo sapiens, UniProt P10911).
T4 construct: Dbl (a.a. 498-826); expressed in transfected cells; host or cells: yeast
T4 sequence (P10911 498-826): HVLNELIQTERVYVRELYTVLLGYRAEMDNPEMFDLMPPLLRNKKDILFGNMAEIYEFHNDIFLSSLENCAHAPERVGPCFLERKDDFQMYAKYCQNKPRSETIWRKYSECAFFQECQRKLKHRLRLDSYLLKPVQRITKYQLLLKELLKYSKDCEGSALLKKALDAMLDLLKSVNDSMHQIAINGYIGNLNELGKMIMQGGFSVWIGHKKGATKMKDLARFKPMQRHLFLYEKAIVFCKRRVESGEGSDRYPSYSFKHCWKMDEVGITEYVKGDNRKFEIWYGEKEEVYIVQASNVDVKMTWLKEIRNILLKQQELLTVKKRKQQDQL
Briefly: Binding specificity of aptamers in yeast. Details: key: +++^1 and +^1 represent respectively a full and a partial (see FIG. 1) binding capacity; +++^1 and +^1 represent respectively a full and a partial (see FIG. 1) binding capacity; −−^1 represents a lack of binding. To be noted: RhoGEF Dbl.
From the text: as §1, §2

The test system of another assay is PDZRhoGEF. The assay is described as follows: Binding specificity of aptamers in yeast. On the set-up: key: +++^1 and +^1 represent respectively a full and a partial (see FIG. 1) binding capacity; +++^1 and +^1 represent respectively a full and a partial (see FIG. 1) binding capacity; −−^1 represents a lack of binding. The note with it: RhoGEF PDZRhoGEF.
From the text: as §1, §2

Another assay has as its target T5, p115RhoGEF (Homo sapiens, UniProt Q92888).
T5 construct: p115RhoGEF (a.a. 391-870); expressed in transfected cells; host or cells: yeast
T5 sequence (Q92888 391-870): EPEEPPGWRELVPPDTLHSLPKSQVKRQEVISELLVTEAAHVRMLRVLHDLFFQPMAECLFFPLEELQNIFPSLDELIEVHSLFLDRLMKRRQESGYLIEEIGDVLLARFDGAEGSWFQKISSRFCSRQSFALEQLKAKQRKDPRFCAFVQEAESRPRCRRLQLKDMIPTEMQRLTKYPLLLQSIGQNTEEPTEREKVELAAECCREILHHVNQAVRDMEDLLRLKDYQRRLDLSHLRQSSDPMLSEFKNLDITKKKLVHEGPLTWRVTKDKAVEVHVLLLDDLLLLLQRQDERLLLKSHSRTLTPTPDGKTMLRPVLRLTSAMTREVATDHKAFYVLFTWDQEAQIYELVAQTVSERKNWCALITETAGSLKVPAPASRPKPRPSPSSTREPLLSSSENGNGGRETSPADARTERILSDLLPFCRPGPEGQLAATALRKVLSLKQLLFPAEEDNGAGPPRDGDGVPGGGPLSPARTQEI
The assay is described as follows: Binding specificity of aptamers in yeast. To be noted: RhoGEF p115RhoGEF. On the set-up: key: +++^1 and +^1 represent respectively a full and a partial (see FIG. 1) binding capacity; +++^1 and +^1 represent respectively a full and a partial (see FIG. 1) binding capacity; −−^1 represents a lack of binding.
From the text: as §1, §2

“Also recorded” adds a separate entry of the source.

B1: TRIAPα: aptamer of 154 amino acids: variable region of 42 amino acids inserted into the thioredoxin protein; tested as GST fusion (protein)
chain: MSDKIIHLTDDSFDTDVLKADGAILVDFWAEWCGPAREGADGAICGYNLATLVMLGPSERVFCPLCEPCSSDIYELMGPCKMIAPILDEIADEYQGKLTVAKLNIDQNPGTAPKYGIRGIPTLLLFKNGEVASATKVGALSKGQLKEFLDANLA
With B1, the Binding in yeast result in assay [1] (RhoGEF TrioDH2PH2) is recorded as “+++^1”; with GEFD2 domain of Kalirin (RhoGEF KalirinDH2PH2) it was “+^1”; with TrioGEFD1 (DH1PH1) (RhoGEF TrioDH1PH1), “+^1”; with Dbl it was “−−^1”; in the assay with PDZRhoGEF, “−−^1”; with p115RhoGEF, “−−^1”. Moreover, the “Binding to TrioGEFD2 (DH2PH2) in yeast” value in assay [1] (growth on selective medium) is reported as “binding to TrioGEFD2”. In the assay with GEFD2 domain of Kalirin (growth on selective medium), the “Binding to the second RhoGEF domain of Kalirin in yeast” value is “weakly interacts; also recorded: interacted weakly”. In addition, the “Binding to TrioGEFD1 (DH1PH1) in yeast” value in the assay with TrioGEFD1 (DH1PH1) (growth on selective medium) is “weakly interacts; also recorded: interacted weakly; also recorded: bound TrioGEFD1 in yeast”.
